Results reported in patent US20220081485A1 (BEIJING WISDOMAB BIOTECHNOLOGY, published 2022).
Positions count from the first letter of the chain named. Where two headings read alike, the source gives them in different places.

Columns and labels:
[1] = molecular target: T1, coated recombinant IL4R antigen (Example 3.2) (human (Homo sapiens), UniProt P24394 26-232); assay: competition ELISA: phage-scFv at a fixed titer on coated recombinant IL4R, against a gradient of recombinant IL4; detected with HRP-anti-M13
T1 sequence: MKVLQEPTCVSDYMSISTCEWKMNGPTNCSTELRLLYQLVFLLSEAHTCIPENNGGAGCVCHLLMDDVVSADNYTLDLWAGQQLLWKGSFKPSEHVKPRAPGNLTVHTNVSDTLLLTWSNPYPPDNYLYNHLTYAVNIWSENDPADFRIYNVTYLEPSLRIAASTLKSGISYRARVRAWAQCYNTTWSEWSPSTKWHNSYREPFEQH

[2] = molecular target: T2, recombinant hIL4R-his (human IL-4R extracellular domain with C-terminal His tag) (human (Homo sapiens), UniProt P24394 26-232); assay: solid phase phage display screening with hIL4R-his as antigen
T2 construct: The tag was added at the C-terminus; The protein was expressed in HEK293 cells; also called huIL4R
T2 sequence: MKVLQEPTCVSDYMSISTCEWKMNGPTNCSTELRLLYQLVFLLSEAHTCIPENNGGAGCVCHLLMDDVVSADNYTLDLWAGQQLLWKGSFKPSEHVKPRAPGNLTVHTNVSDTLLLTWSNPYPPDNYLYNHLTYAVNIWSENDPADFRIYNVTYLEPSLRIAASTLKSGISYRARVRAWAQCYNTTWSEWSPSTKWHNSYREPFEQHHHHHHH

[3] = molecular target: T3, human IL-4R on cells (HEK-Blue IL-4/IL-13 cells, TF-1 cells, human PBMCs) (human, UniProt P24394 26-825); assay: cell-based or functional assay
T3 sequence (looked up): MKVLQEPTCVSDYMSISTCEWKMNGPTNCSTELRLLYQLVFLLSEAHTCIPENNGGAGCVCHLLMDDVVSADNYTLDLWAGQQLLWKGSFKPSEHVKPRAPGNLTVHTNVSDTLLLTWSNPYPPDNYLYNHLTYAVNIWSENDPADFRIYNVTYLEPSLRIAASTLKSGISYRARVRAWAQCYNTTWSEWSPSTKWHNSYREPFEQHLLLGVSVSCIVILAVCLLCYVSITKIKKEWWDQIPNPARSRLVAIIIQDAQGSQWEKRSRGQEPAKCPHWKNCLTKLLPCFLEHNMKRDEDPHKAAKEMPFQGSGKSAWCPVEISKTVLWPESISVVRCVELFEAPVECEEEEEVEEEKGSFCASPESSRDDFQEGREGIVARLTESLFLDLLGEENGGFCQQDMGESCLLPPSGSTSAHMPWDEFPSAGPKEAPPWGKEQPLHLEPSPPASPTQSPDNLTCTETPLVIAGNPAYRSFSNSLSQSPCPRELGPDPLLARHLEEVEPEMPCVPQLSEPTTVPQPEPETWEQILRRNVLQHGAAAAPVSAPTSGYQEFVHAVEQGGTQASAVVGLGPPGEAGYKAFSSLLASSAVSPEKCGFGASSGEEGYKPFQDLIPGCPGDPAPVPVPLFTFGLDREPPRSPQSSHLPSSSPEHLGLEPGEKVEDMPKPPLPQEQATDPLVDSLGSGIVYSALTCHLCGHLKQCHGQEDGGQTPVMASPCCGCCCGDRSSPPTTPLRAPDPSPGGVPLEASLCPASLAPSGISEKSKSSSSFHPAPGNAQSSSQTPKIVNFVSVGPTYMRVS

[4] = molecular target: T4, mmIL4R-mFc (Macaca mulatta IL-4R extracellular domain fused to murine IgG2a Fc) (Macaca mulatta); assay: SPR Biacore X100, antibody captured, mmIL4R-mFc as analyte
T4 chain: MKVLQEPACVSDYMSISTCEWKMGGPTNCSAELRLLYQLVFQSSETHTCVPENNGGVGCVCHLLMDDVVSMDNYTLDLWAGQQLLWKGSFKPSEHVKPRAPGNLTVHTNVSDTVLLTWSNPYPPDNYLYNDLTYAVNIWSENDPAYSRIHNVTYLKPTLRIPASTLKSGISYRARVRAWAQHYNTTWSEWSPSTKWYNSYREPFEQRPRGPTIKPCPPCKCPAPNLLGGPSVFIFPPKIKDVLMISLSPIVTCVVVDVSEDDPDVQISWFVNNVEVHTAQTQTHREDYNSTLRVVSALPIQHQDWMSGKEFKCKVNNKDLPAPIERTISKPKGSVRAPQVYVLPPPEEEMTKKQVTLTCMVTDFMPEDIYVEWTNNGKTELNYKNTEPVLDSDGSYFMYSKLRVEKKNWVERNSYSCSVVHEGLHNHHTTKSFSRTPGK
Experimental: (§1) The affinity of each anti-IL4R IgG4 chimeric antibody was determined using Biacore X100. Amino coupling kits, human antibody capture kits, CM5 chips, 1× HBS-EP (pH 7.4) and all reagents used in this assay were purchased from GE Healthcare. According to the instructions in the kits, an antibody against the human Fc region was coupled to the surface of the CM5 chip using an amino coupling method, and antibody proteins were diluted to appropriate concentrations to ensure that about 100 RU of the antibodies was captured by the antibody against the human Fc. IL4R-his was set to a series of concentration gradients (100 nm, 33.3 nm, 11.1 nm, 3.7 nm, 1.23 nm) and flew through the surface of the stationary phase.
Similarly, anti-IL4R monoclonal antibodies were captured and mmIL4R-mFc was set to a series of concentration gradient (50 nm, 16.7 nm, 5.56 nm, […], 0.62 nm).

[5] = molecular target: T3, human IL-4R on cells (HEK-Blue …); assay: cell-based or functional assay; remark: listed apart in the source
[6] = molecular target: T3, human IL-4R on cells (HEK-Blue …); assay: cell-based or functional assay; remark: listed apart in the source
[7] = molecular target: T2, recombinant hIL4R-his (human IL-4R …); assay: SPR Biacore X100, antibody captured by anti-human Fc, IL4R-his as analyte, 25 C
Experimental: as §1

[8] = molecular target: T5, IL4R-mFc (human IL-4R extracellular domain fused to murine IgG2a Fc) (human (Homo sapiens)); assay: blocking ELISA: antibody gradient with IL4-his at a fixed concentration on coated IL4R-mFc; bound IL4-his detected with HRP-mouse-anti-his IgG
T5 construct: also called antigen IL4R-mFc
Experimental: (§2) 96 well plates were coated with antigen IL4R-mFc (3 μg/ml, 100 μI/well) overnight at 4° C.

[9] = molecular target: T3, human IL-4R on cells (HEK-Blue …); assay: cell-based or functional assay; remark: listed apart in the source
[10] = molecular target: T3, human IL-4R on cells (HEK-Blue …); assay: cell-based or functional assay; remark: listed apart in the source
[11] = molecular target: T2, recombinant hIL4R-his (human IL-4R …); assay: SPR Biacore X100, antibody captured by anti-human Fc, IL4R-his as analyte, 25 C; remark: listed apart in the source
Experimental: as §1

[12] = molecular target: T5, IL4R-mFc (human IL-4R extracellular …); assay: blocking ELISA: antibody gradient with IL4-his at a fixed concentration on coated IL4R-mFc; bound IL4-his detected with HRP-mouse-anti-his IgG; remark: listed apart in the source
Experimental: as §2

[13] = molecular target: T3, human IL-4R on cells (HEK-Blue …); assay: cell-based or functional assay; remark: listed apart in the source

B1: S2C2 phage-scFv (scFv)
scFv: QVQLQQSGPGLVKPSQTLSLTCAISGDSVSSNNDAWNWIRQSPSRGLEWLGRTYYRSKWYNDYAVSLKGRITINPDTSKNQFSLHLNSVTPEDTAVYYCAKRDSSVGVGAMDVWSQGTTVTVSSGGGGSGGGGSGGGGSVIWMTQSPSSLSASVGDRVTITCRSSQYIGKYLNWYQYKKGQVPKLLIYAASSLRSGVPSRFSGRGSATEFTLTISNLQREDFATYYCQKYNAVPLTFGQGTKLEIK
notes: also called clone S2C2
binding result [1]: binds
binding result [2]: binds

B2: L28F8-IgG4 (antibody, V domains shown)
VH: EVQLVESGGGLVQPGGSLRLSCAVSGFTFSSYAMSWVRQAPGKGLEWVSSITGGGGGIYYADSVKGRFTISRDNSKNTVYLQMNSLRAEDTAVYYCAKDRISITIRPRYFGLDFWGQGTTVTVSS
VL: DIVMTQSPLSLPVTPGEPASISCRSSQNVVYGNGYNYLDWYLQKSGQSPQLLIYLGTNVAAGVPDRFSGSGSGTDFTLKISRVEAEDVGFYYCMQSLQAPYTFGQGTKLEIKR
notes: also called S1E6 light chain mutant L28F8
IC50 values in inhibition of IL-13 (SEAP, HEK-Blue IL-4/IL-13 cells) [3]: 12.1 pM
Kd [4]: 6.93 nM
koff [4]: 0.00519 s⁻¹
kon [4]: 748000 M⁻¹ s⁻¹
IC50 values in inhibition of IL-4 (SEAP, HEK-Blue IL-4/IL-13 cells) [5]: 55 pM
IC50 values in inhibition of IL-4 (IL-4 induced proliferation of TF-1 cells, CellTiter-Glo) [6]: 0.124 nM
Kd [7]: 0.42 nM
koff [7]: 0.000144 s⁻¹
kon [7]: 342000 M⁻¹ s⁻¹
IC50 (read off the curve) [8]: ~10 nM

B3: L10C2-IgG4 (antibody, V domains shown)
VH: B2 VH
VL: DIVMTQSPLSLPVTAGAPASISCRSSQSLLYSNGYNYLDWYMQKPGQSPQLLIYLGSNRASGVPDRFSGSGSGTDFTLKISRVEAEDVGVYYCMQALETPYAFGQGTKVEIKR
notes: also called S1E6 light chain mutant L10C2
IC50 values in inhibition of IL-13 (SEAP, HEK-Blue IL-4/IL-13 cells) [9]: 31.4 pM
fold of IC50 in inhibition of IL-4 against L10B2 (HEK-Blue IL-4/IL-13 cells) [10]: 1.6 fold
fold of IC50 in inhibition of IL-13 against L10B2 (HEK-Blue IL-4/IL-13 cells) [10]: 2.4 fold
Kd [11]: 0.874 nM
koff [11]: 0.000309 s⁻¹
kon [11]: 353000 M⁻¹ s⁻¹
IC50 (read off the curve) [12]: ~8 nM
IC50 values in inhibition of IL-4 (SEAP, HEK-Blue IL-4/IL-13 cells) [13]: 333 pM

B4: L10B2-IgG4 (antibody, V domains shown)
VH: B2 VH
VL: DIVMTQSPLSLPVTPGEPASISCRSSHNLLYSNGYNYLDWYLQKPGQSPQLLIYLGSNRAYGVPDRFSGSGSGTDFTLKISRVEAEDVGVYHCMQALQSPYTFGQGTKVDIKR
notes: also called S1E6 light chain mutant L10B2
IC50 values in inhibition of IL-13 (SEAP, HEK-Blue IL-4/IL-13 cells) [9]: 13.1 pM
Kd [11]: 0.443 nM
koff [11]: 0.000152 s⁻¹
kon [11]: 343000 M⁻¹ s⁻¹
IC50 (read off the curve) [12]: ~7 nM
IC50 values in inhibition of IL-4 (SEAP, HEK-Blue IL-4/IL-13 cells) [13]: 207 pM

B5: L28G5-IgG4 (antibody, V domains shown)
VH: B2 VH
VL: B2 VL with Q27R, V30I, T57N
notes: also called S1E6 light chain mutant L28G5
IC50 values in inhibition of IL-13 (SEAP, HEK-Blue IL-4/IL-13 cells) [3]: 11.5 pM
Kd [4]: 10.4 nM
koff [4]: 0.00709 s⁻¹
kon [4]: 684000 M⁻¹ s⁻¹
IC50 values in inhibition of IL-4 (SEAP, HEK-Blue IL-4/IL-13 cells) [5]: 48.4 pM
IC50 values in inhibition of IL-4 (IL-4 induced proliferation of TF-1 cells, CellTiter-Glo) [6]: 0.118 nM
Kd [7]: 0.465 nM
koff [7]: 0.000134 s⁻¹
kon [7]: 289000 M⁻¹ s⁻¹
IC50 (read off the curve) [8]: ~8 nM

B6: S1E6-IgG4 (antibody, V domains shown)
VH: B2 VH
VL: B2 VL with Q27R, N28S, V30L, Q98R, A99T
notes: also called monoclonal antibody S1E6
Kd [4]: 9.3 nM
koff [4]: 0.0049 s⁻¹
kon [4]: 527000 M⁻¹ s⁻¹
Kd [11]: 2.95 nM
koff [11]: 0.000923 s⁻¹
kon [11]: 312000 M⁻¹ s⁻¹
IC50 (read off the curve) [12]: ~20 nM
Kd [7]: 2.84 nM
koff [7]: 0.000709 s⁻¹
kon [7]: 249000 M⁻¹ s⁻¹
IC50 (read off the curve) [8]: ~20 nM

B7: S1H9 phage-scFv (scFv)
scFv: EVQLVESGGGLVQPGGSLRLSCAASGFTFSNYSMRWVRQAPGKGLEWVSFISASGSTKYYADSVKGRFTISRDNSKNTLYLQMNSLRAEDTAVYYCARKPTAPRSSALDYWGQGTLVTVSSGGGGSGGGGSGGGGSDIQMTQSPSSLSASVGDRVTITCRASQGVNNYLNWYQQKPGKAPKLLIYGASSRASGVPSRFSGSGSGTDFTLTISSLQPEDFATYYCQQRLSVPLTFGQGTKVEIK
notes: also called clone S1H9
binding result [1]: binds
binding result [2]: binds

B8: S1E6 phage-scFv (scFv)
scFv: EVQLVESGGGLVQPGGSLRLSCAVSGFTFSSYAMSWVRQAPGKGLEWVSSITGGGGGIYYADSVKGRFTISRDNSKNTVYLQMNSLRAEDTAVYYCAKDRISITIRPRYFGLDFWGQGTTVTVSSGGGGSGGGGSGGGGSDIVMTQSPLSLPVTPGEPASISCRSSRSVLYGNGYNYLDWYLQKSGQSPQLLIYLGTNVAAGVPDRFSGSGSGTDFTLKISRVEAEDVGFYYCMQSLRTPYTFGQGTKLEIK
notes: also called clone S1E6; S1E6 single chain antibody
binding result [1]: binds
binding result [2]: binds
